Where no end group is shown, it is not given here. [ ]: non-standard residue; d: D form. Aib = CC(C)(N)C(=O)O

Data on 5 molecules can be found in patent US20150344540A1, “NOVEL GLP-1 RECEPTOR AGONISTS WITH CHOLESTEROL EFFLUX ACTIVITY” (NOVO NORDISK A/S, priority 2012, published 2015).

The target in the assay is human GLP-1 receptor (human, UniProt P43220). Kind of assay: cell-based or functional assay.

B1: [Aib8,Glu23,Val25,Arg26,Glu34,Lys35,Aib36,Lys37]-GLP-1-(7-37)-peptidyl-Glu-Phe-Leu amide (peptide)
peptide: H[Aib]EGTFTSDVSSYLEGEAVREFIAWLVEK[Aib]KEFL-NH2
modifications: N-terminus assumed
SMILES: CC[C@H](C)[C@H](NC(=O)[C@H](Cc1ccccc1)NC(=O)[C@H](CCC(=O)O)NC(=O)[C@H](CCCNC(=N)N)NC(=O)[C@@H](NC(=O)[C@H](C)NC(=O)[C@H](CCC(=O)O)NC(=O)CNC(=O)[C@H](CCC(=O)O)NC(=O)[C@H](CC(C)C)NC(=O)[C@H](Cc1ccc(O)cc1)NC(=O)[C@H](CO)NC(=O)[C@H](CO)NC(=O)[C@@H](NC(=O)[C@H](CC(=O)O)NC(=O)[C@H](CO)NC(=O)[C@@H](NC(=O)[C@H](Cc1ccccc1)NC(=O)[C@@H](NC(=O)CNC(=O)[C@H](CCC(=O)O)NC(=O)C(C)(C)NC(=O)[C@@H](N)Cc1c[nH]cn1)[C@@H](C)O)[C@@H](C)O)C(C)C)C(C)C)C(=O)N[C@@H](C)C(=O)N[C@@H](Cc1c[nH]c2ccccc12)C(=O)N[C@@H](CC(C)C)C(=O)N[C@H](C(=O)N[C@@H](CCC(=O)O)C(=O)N[C@@H](CCCCN)C(=O)NC(C)(C)C(=O)N[C@@H](CCCCN)C(=O)N[C@@H](CCC(=O)O)C(=O)N[C@@H](Cc1ccccc1)C(=O)N[C@@H](CC(C)C)C(N)=O)C(C)C
For the molecule B1, the “CRE luciferase EC50, 0% HSA” value worked out at 76 pM and the “CRE luciferase EC50, 1% HSA” value worked out at 28 pM.

B2: [Aib8,Glu23,Val25,Leu33,Glu34,Lys35,Aib36,Lys37]-GLP-1-(7-37)-peptidyl-Glu-Phe-Leu amide (peptide)
peptide: H[Aib]EGTFTSDVSSYLEGEAVKEFIAWLLEK[Aib]KEFL-NH2
modifications: N-terminus assumed
SMILES: CC[C@H](C)[C@H](NC(=O)[C@H](Cc1ccccc1)NC(=O)[C@H](CCC(=O)O)NC(=O)[C@H](CCCCN)NC(=O)[C@@H](NC(=O)[C@H](C)NC(=O)[C@H](CCC(=O)O)NC(=O)CNC(=O)[C@H](CCC(=O)O)NC(=O)[C@H](CC(C)C)NC(=O)[C@H](Cc1ccc(O)cc1)NC(=O)[C@H](CO)NC(=O)[C@H](CO)NC(=O)[C@@H](NC(=O)[C@H](CC(=O)O)NC(=O)[C@H](CO)NC(=O)[C@@H](NC(=O)[C@H](Cc1ccccc1)NC(=O)[C@@H](NC(=O)CNC(=O)[C@H](CCC(=O)O)NC(=O)C(C)(C)NC(=O)[C@@H](N)Cc1c[nH]cn1)[C@@H](C)O)[C@@H](C)O)C(C)C)C(C)C)C(=O)N[C@@H](C)C(=O)N[C@@H](Cc1c[nH]c2ccccc12)C(=O)N[C@@H](CC(C)C)C(=O)N[C@@H](CC(C)C)C(=O)N[C@@H](CCC(=O)O)C(=O)N[C@@H](CCCCN)C(=O)NC(C)(C)C(=O)N[C@@H](CCCCN)C(=O)N[C@@H](CCC(=O)O)C(=O)N[C@@H](Cc1ccccc1)C(=O)N[C@@H](CC(C)C)C(N)=O
Consider B2, for which the “CRE luciferase EC50, 0% HSA” value worked out at 203 pM and the “CRE luciferase EC50, 1% HSA” value was 76 pM.

B3: [Aib8,Glu23,Val25,Gln30,Glu34,Lys35,Aib36,Lys37]-GLP-1-(7-37)-peptidyl-Glu-Phe-Leu amide (peptide)
peptide: H[Aib]EGTFTSDVSSYLEGEAVKEFIQWLVEK[Aib]KEFL-NH2
modifications: N-terminus assumed
SMILES: CC[C@H](C)[C@H](NC(=O)[C@H](Cc1ccccc1)NC(=O)[C@H](CCC(=O)O)NC(=O)[C@H](CCCCN)NC(=O)[C@@H](NC(=O)[C@H](C)NC(=O)[C@H](CCC(=O)O)NC(=O)CNC(=O)[C@H](CCC(=O)O)NC(=O)[C@H](CC(C)C)NC(=O)[C@H](Cc1ccc(O)cc1)NC(=O)[C@H](CO)NC(=O)[C@H](CO)NC(=O)[C@@H](NC(=O)[C@H](CC(=O)O)NC(=O)[C@H](CO)NC(=O)[C@@H](NC(=O)[C@H](Cc1ccccc1)NC(=O)[C@@H](NC(=O)CNC(=O)[C@H](CCC(=O)O)NC(=O)C(C)(C)NC(=O)[C@@H](N)Cc1c[nH]cn1)[C@@H](C)O)[C@@H](C)O)C(C)C)C(C)C)C(=O)N[C@@H](CCC(N)=O)C(=O)N[C@@H](Cc1c[nH]c2ccccc12)C(=O)N[C@@H](CC(C)C)C(=O)N[C@H](C(=O)N[C@@H](CCC(=O)O)C(=O)N[C@@H](CCCCN)C(=O)NC(C)(C)C(=O)N[C@@H](CCCCN)C(=O)N[C@@H](CCC(=O)O)C(=O)N[C@@H](Cc1ccccc1)C(=O)N[C@@H](CC(C)C)C(N)=O)C(C)C
For B3, the “CRE luciferase EC50, 0% HSA” value was determined as 83 pM and the “CRE luciferase EC50, 1% HSA” value turned out to be 42 pM.

B4: [Aib8,Glu23,Val25,Val29,Glu34,Lys35,Aib36,Lys37]-GLP-1-(7-37)-peptidyl-Glu-Phe-Leu amide (peptide)
peptide: H[Aib]EGTFTSDVSSYLEGEAVKEFVAWLVEK[Aib]KEFL-NH2
modifications: N-terminus assumed
SMILES: CC(C)C[C@H](NC(=O)[C@H](Cc1ccccc1)NC(=O)[C@H](CCC(=O)O)NC(=O)[C@H](CCCCN)NC(=O)C(C)(C)NC(=O)[C@H](CCCCN)NC(=O)[C@H](CCC(=O)O)NC(=O)[C@@H](NC(=O)[C@H](CC(C)C)NC(=O)[C@H](Cc1c[nH]c2ccccc12)NC(=O)[C@H](C)NC(=O)[C@@H](NC(=O)[C@H](Cc1ccccc1)NC(=O)[C@H](CCC(=O)O)NC(=O)[C@H](CCCCN)NC(=O)[C@@H](NC(=O)[C@H](C)NC(=O)[C@H](CCC(=O)O)NC(=O)CNC(=O)[C@H](CCC(=O)O)NC(=O)[C@H](CC(C)C)NC(=O)[C@H](Cc1ccc(O)cc1)NC(=O)[C@H](CO)NC(=O)[C@H](CO)NC(=O)[C@@H](NC(=O)[C@H](CC(=O)O)NC(=O)[C@H](CO)NC(=O)[C@@H](NC(=O)[C@H](Cc1ccccc1)NC(=O)[C@@H](NC(=O)CNC(=O)[C@H](CCC(=O)O)NC(=O)C(C)(C)NC(=O)[C@@H](N)Cc1c[nH]cn1)[C@@H](C)O)[C@@H](C)O)C(C)C)C(C)C)C(C)C)C(C)C)C(N)=O
Take B4: the “CRE luciferase EC50, 0% HSA” value was 111 pM and the “CRE luciferase EC50, 1% HSA” value came out at 36 pM.

B5: [Aib8,Glu23,Val25,Arg26,Val29,Gln30,Leu33,Glu34,Lys35,Aib36,Lys37]-GLP-1-(7-37)-peptidyl-Glu-Phe-Leu amide (peptide)
peptide: H[Aib]EGTFTSDVSSYLEGEAVREFVQWLLEK[Aib]KEFL-NH2
modifications: N-terminus assumed
SMILES: CC(C)C[C@H](NC(=O)[C@H](Cc1ccccc1)NC(=O)[C@H](CCC(=O)O)NC(=O)[C@H](CCCCN)NC(=O)C(C)(C)NC(=O)[C@H](CCCCN)NC(=O)[C@H](CCC(=O)O)NC(=O)[C@H](CC(C)C)NC(=O)[C@H](CC(C)C)NC(=O)[C@H](Cc1c[nH]c2ccccc12)NC(=O)[C@H](CCC(N)=O)NC(=O)[C@@H](NC(=O)[C@H](Cc1ccccc1)NC(=O)[C@H](CCC(=O)O)NC(=O)[C@H](CCCNC(=N)N)NC(=O)[C@@H](NC(=O)[C@H](C)NC(=O)[C@H](CCC(=O)O)NC(=O)CNC(=O)[C@H](CCC(=O)O)NC(=O)[C@H](CC(C)C)NC(=O)[C@H](Cc1ccc(O)cc1)NC(=O)[C@H](CO)NC(=O)[C@H](CO)NC(=O)[C@@H](NC(=O)[C@H](CC(=O)O)NC(=O)[C@H](CO)NC(=O)[C@@H](NC(=O)[C@H](Cc1ccccc1)NC(=O)[C@@H](NC(=O)CNC(=O)[C@H](CCC(=O)O)NC(=O)C(C)(C)NC(=O)[C@@H](N)Cc1c[nH]cn1)[C@@H](C)O)[C@@H](C)O)C(C)C)C(C)C)C(C)C)C(N)=O
For the molecule B5, the “CRE luciferase EC50, 0% HSA” value was found to be 94 pM and the “CRE luciferase EC50, 1% HSA” value came out at 29 pM.
